First the molecules themselves.
B1: APC–ARM, human APC (407–751), N-terminally His-tagged (domain or fragment, UniProt P25054 407-751, looked up)
chain: LHLLEQIRAYCETCWEWQEAHEPGMDQDKNPMPAPVEHQICPAVCVLMKLSFDEEHRHAMNELGGLQAIAELLQVDCEMYGLTNDHYSITLRRYAGMALTNLTFGDVANKATLCSMKGCMRALVAQLKSESEDLQQVIASVLRNLSWRADVNSKKTLREVGSVKALMECALEVKKESTLKSVLSALWNLSAHCTENKADICAVDGALAFLVGTLTYRSQTNTLAIIESGGGILRNVSSLIATNEDHRQILRENNCLQTLLQHLKSHSLTIVSNACGTLWNLSARNPKDQEALWDMGAVSMLKNLIHSKHKMIAMGSAAALRNLMANRPAKYKDANIMSPGSSLPS
notes: human APC, armadillo repeat (ARM) domain, residues 407–751; source: E. coli BL21(DE3), purified (Ni2+-NTA, Superdex200)
B2: GST-Amer1 (325–335), core A1 (domain or fragment, human)
chain: LTGCGDIIAEQ
notes: human Amer1/WTX residues 325–335; The results call the ITC samples peptides; the ITC methods name GST-Amer1 proteins; also called Amer1-A1; not shown: GST, N-terminal, kept
B3: GST-Amer1 (380–531), full A2 (domain or fragment, human, UniProt Q5JTC6 380-531, looked up)
chain: EEEEEEEEVELEEEEEEVKEEEEDDDLEYLWETAQMYPRPNMNLGYHPTTSPGHHGYMLLDPVRSYPGLAPGELLTPQSDQQESAPNSDEGYYDSTTPGFEDDSGEALGLVRRDCLPRDSYSGDALYEFYEPDDSLENSPPGDDCLYDLHGR
notes: the methods print full A2: 400–531; also called full Amer1-A2; not shown: GST, N-terminal, kept
B4: GST-Amer1 (280–368), full A1 (domain or fragment, human, UniProt Q5JTC6 280-368, looked up)
chain: SLEEPHSPETGEKVVAGEVNPPNGPVGDPLSLLFGDVTSLKSFDSLTGCGDIIAEQDMDSMTDSMASGGQRANRDGTKRSSCLVTYQGG
notes: the methods print full A1: 280–364; also called full Amer1-A1; not shown: GST, N-terminal, kept
B5: GST-Amer1 (496–508), core A2 (domain or fragment, human)
chain: PRDSYSGDALYEF
notes: human Amer1/WTX residues 496–508; The results call the ITC samples peptides; the ITC methods name GST-Amer1 proteins; also called Amer1-A2; not shown: GST, N-terminal, kept
B6: GST-Amer1 (365–375), A4 (domain or fragment, human)
chain: YQGGGEEMALP
notes: human Amer1/WTX residues 365–375; also called Amer1-A4; not shown: GST, N-terminal, kept
B7: Amer1 (766–823, Δ778–794) (domain or fragment, human, UniProt Q5JTC6 766-823, looked up)
chain: TVSFSQALVEFTSFTQNLPELPPMVTFDIADVERDGEGKCE
notes: human Amer1/WTX residues 766–823 with residues 778–794 deleted; not shown: GST, N-terminal, kept
B8: GST-Amer1 (716–834), A3 (domain or fragment, human, UniProt Q5JTC6 716-834, looked up)
chain: TCLMQLFQSDAMFEPDMQEANFGGSPRRAYPTYSPPEDPEEEEVEKEGNATVSFSQALVEFTSNGNLFSSMSCSSDSDSSFTQNLPELPPMVTFDIADVERDGEGKCEENPEFHNDEDL
notes: human Amer1/WTX residues 716–834; The methods list only A3: 766–823 among the GST constructs; not shown: GST, N-terminal, kept
B9: APC–ARM, human APC (407–775), N-terminally His-tagged (domain or fragment, UniProt P25054 407-775, looked up)
chain: LHLLEQIRAYCETCWEWQEAHEPGMDQDKNPMPAPVEHQICPAVCVLMKLSFDEEHRHAMNELGGLQAIAELLQVDCEMYGLTNDHYSITLRRYAGMALTNLTFGDVANKATLCSMKGCMRALVAQLKSESEDLQQVIASVLRNLSWRADVNSKKTLREVGSVKALMECALEVKKESTLKSVLSALWNLSAHCTENKADICAVDGALAFLVGTLTYRSQTNTLAIIESGGGILRNVSSLIATNEDHRQILRENNCLQTLLQHLKSHSLTIVSNACGTLWNLSARNPKDQEALWDMGAVSMLKNLIHSKHKMIAMGSAAALRNLMANRPAKYKDANIMSPGSSLPSLHVRKQKALEAELDAQHLSETFDN
notes: human APC, ARM domain, residues 407–775; source: E. coli BL21(DE3), purified (Ni2+-NTA, Superdex200)
B10: GST-Amer1 (766–823), core A3 (domain or fragment, human, UniProt Q5JTC6 766-823, looked up)
chain: TVSFSQALVEFTSNGNLFSSMSCSSDSDSSFTQNLPELPPMVTFDIADVERDGEGKCE
notes: human Amer1/WTX residues 766–823; not shown: GST, N-terminal, kept
B11: Amer1-A2 peptide (residues 496–508) (peptide)
peptide: H-PRDSYSGDALYEF-OH
notes: human Amer1/WTX residues 496–508; also called hAmer1-A2 (496–508); source: synthetic peptide (Appeptide Company), HPLC purified
B12: Amer1-A4 peptide (residues 365–375) (peptide)
peptide: H-YQGGGEEMALP-OH
notes: human Amer1/WTX residues 365–375; also called hAmer1-A4 (365–375); source: synthetic peptide (Appeptide Company), HPLC purified
B13: Amer1-A1 peptide (residues 325–335) (peptide)
peptide: H-LTGCGDIIAEQ-OH
notes: human Amer1/WTX residues 325–335; also called hAmer1-A1 (325–335); source: synthetic peptide (Appeptide Company), HPLC purified

What all share (conditions): both partners purified
In assay [1] the target is B4. Briefly: ITC; ITC200, 25 °C; 50 mM HEPES pH 7.5, 300 mM NaCl, 1 mM EDTA; typically 200 μM APC–ARM injected into 20 μM GST-Amer1 fragment, or 1 mM GST-Amer1 fragment into 80 μM APC–ARM; single-site model. On the technique in general: Isothermal titration calorimetry measures the heat released or taken up as one component is titrated into another.
Assay [2] concerns the target B2. The description is as above.
Assay [3] addresses B3. Described as above.
For assay [4], the target named is B5. The description is as above.
In the assay “GST-Amer1 (365–375), A4” the target is B6. The assay is described as above.
Assay [5] concerns the target B1. Described as above.
In assay [6] the target is B9. The assay is described as above.
The assay “GST-Amer1 (716–834), A3” addresses B8. Described as above.
Assay [7] addresses B10. The description is as above.
Assay [8] addresses B7. The description is as above.
The target of assay [9] is B1. Nature of the assay: crystal structure; APC–ARM mixed with synthetic Amer1 peptide at 1:1.5; hanging drop, 14 °C.

The term stoichiometry N denotes the number of molecules, sites or subunits per partner or assembly. B1: the dH in assay [1] was -1.12 ± 0.55 kcal/mol; in assay [2], -0.9 ± 0.1 kcal/mol; in assay [3] it was -3.5 ± 0.1 kcal/mol; in [4], -5.2 ± 0.2 kcal/mol; in the assay with GST-Amer1 (365–375), A4 it was -3.5 ± 0.1 kcal/mol. The “stoichiometry N” value is 0.97 ± 0.39 Amer1/APC ratio in [1]; 0.9 ± 0.08 Amer1/APC ratio in assay [2]; 0.92 ± 0.02 Amer1/APC ratio in assay [3]; 1.08 ± 0.02 Amer1/APC ratio in [4]; 0.95 ± 0.02 Amer1/APC ratio in the assay with GST-Amer1 (365–375), A4.
A word on the Kd: it is the free concentration of one partner at which half of the binding sites on the other are occupied at equilibrium, for simple one-to-one binding. High values mean a looser complex, low ones a tighter complex. As to B2, the Kd in [5] was 14400 ± 4300 nM.
The molecule B3 gave a Kd in [5] of 500 ± 100 nM.
The same measure, in the same setting: as for B4, the figure is 8000 ± 4100 nM; as for B5, 1100 ± 200 nM.
In [5], B6 displayed a Kd of 2000 ± 300 nM.
In turn, B7 came in with a Kd in [6] of 220 ± 110 nM.
B8 displayed a Kd in [6] of 130 ± 60 nM.
Consider B9, for which the dH with GST-Amer1 (716–834), A3 is -1.82 ± 0.06 kcal/mol; in [7], -1.82 ± 0.04 kcal/mol; in assay [8], -1.39 ± 0.06 kcal/mol. The “stoichiometry N” value was 0.99 ± 0.02 Amer1/APC ratio with GST-Amer1 (716–834), A3; 1 ± 0.02 Amer1/APC ratio in [7]; 1.02 ± 0.03 Amer1/APC ratio in assay [8].
B10 came in with a Kd in assay [6] of 270 ± 70 nM.
B11: in assay [9], the binding result is recorded as “binds”.
Same read-out and setting: as for B12, the entry is “binds”.
On the same count and under the same terms, as for B13, the entry is “binds”.
